According to the DeepSol protein solubility set:

Experiment: soluble on expression in E. coli; label from the status in PepcDB or PDB records

MSLADPDGGERSRRAARAASLSSSSRPTSVSAKQPCRVKFICRVLRPVVQGFLTSLGYRAAIGRAPSARQLRDYLLVPEVTRLHAENYGFYGRRKMHALMRRQGWVIGRDQTERLMRLAGVRGVRKSKRVLTTHSDKTTVLPADLVNRRFTAPAPRRLWVCDVTYVATWSGFAYVAFVTDVYSRRIVGWNVAATLRSEILPMQALDMAAWGAGGDLTSLIHHADHGSNSEGHHHHHH
soluble on expression in E. coli: soluble

GPGSMSAAVTWLQNSLGIDVTGEWARHVHLNVGGTLYTTRRYTLRELKDHRIFGPILDGHAHRCEDGSFLIDRDGSLFRYIIAYLRDGRLSVPENFAEWDMLLQEVRYYELPAMEKSVMDHFEFQQSVFRRQLPHGVYVWWPPASSQIEEGATVKAAPCDCPASVPPPPLSLFALPITDSATGRCEARGATEDQTRALEKVHVEAAADAATRSSAGAAPSSCSSASMSVRIVPPLPGLTVEMSSGRRVMFRETQVLQDLDQLVTVLLTAYGFSIQHWDTERGRVLLTLPGLM
soluble on expression in E. coli: not soluble

HPISLMRAPVNEIMVGLGYYEVMPFTLTSEKVNFENMCREKTDDVTYVLHPISEDQTMLRTTVLPNLLEILALNQHRELPQKIFEFGEVVSNETTGQHVAAVSIHPQANFTEVYEVVDAFMREMMLSYEVKESKDPAFLEGRRADVYVNGKKLGVFGELQPEVISKFSLGYAVVGFELDLNDLIGKN
soluble on expression in E. coli: not soluble

MGSDKIHHHHHHAQQLNVQGDLVSSYVWRGMYQTGASIQPTLGFSVGNFSLTAWGSTDFDGTSASAGAAAKEIDLTAAYTLGRSGLTVSVADLWWAGQGARKYFNFKSHETAHHFEAGVAYTVQSETFPLSVAWYTMFAGQDKNAEGGQNYSSYVEFNYPFRVRMVDLNVTCGMVPYAAPQYNCDGFAVTNVALKGTTQIRFTDKFALPVFAQAVWNPRMEDAHLVFGITLKP
soluble on expression in E. coli: not soluble

MSTRKAVIGYYFIPTNQINNYTETDTSVVPFPVSNITPAKAKQLTHINFSFLDINSNLECAWDPATNDAKARDVVNRLTALKAHNPSLRIMFSIGGWYYSNDLGVSHANYVNAVKTPASRAKFAQSCVRIMKDYGFDGVDINWEYPQAAEVDGFIAALQEIRTLLNQQTITDGRQALPYQLTIAGAGGAFFLSRYYSKLAQIVAPLDYINLMTYDLAGPWEKVTNHQAALFGDAAGPTFYNALREANLGWSWEELTRAFPSPFSLTVDAAVQQHLMMEGVPSAKIVMGVPFYGRAFKGVSGGNGGQYSSHSTPGEDPYPSTDYWLVGCEECVRDKDPRIASYRQLEQMLQGNYGYQRLWNDKTKTPYLYHAQNGLFVTYDDAESFKYKAKYIKQQQLGGVMFWHLGQDNRNGDLLAALDRYFNAADYDDSQLDMGTGLRYTGVGPGNLPIMTAPAYVPGTTYAQGALVSYQGYVWQTKWGYITSAPGSDSAWLKVGRVA
soluble on expression in E. coli: soluble

MGSDKIHHHHHHQTDTSDERATDSTTAEVTIIYNDERDPLEGFNRAMWDFNYQFLDKYFYRPVAHGYNDILPRPVKTGVNNFVLNFEEPSSMVNNALQGKWGWAANAGGRFTINTTIGLLGVIDVADMMGLQRKQDEFNEVLGYYGVPNGPYFMAPFLGPYVTRELASDWVDGLYFPLSELTMWQSLAKWGLKNLHRRASAIDQERLVDNALDPYTFVKEAYFQHLDYKVYDGDIPVSTDDDELLDEYMTELD
soluble on expression in E. coli: not soluble

MGSDKIHHHHHHMKYYICVCVFLLLNACNSDFSTNQEDIKYPSDKEKSKSNMEASSKEEDPNKKIKNTLLNDLINLIEIANEHKEKYEKRMQEEPSDQYGILAFQELDLSVGKISEDTPQSKKFRKNTYSPLSAIDVNKLKDLSEIIRNSGQIQGLFNIFNRFGGIFDDSLNHVYSKKDILGGLEILDLDKLKNSFEKLLSIKETFSKMLNQLLLDYKNDKDHIRTETNKLKSHTTALFEQLDKKEDEAYEPKNQIFSISNL
soluble on expression in E. coli: not soluble

MPHTSSDVADFKEVRHIRGDINLKPFIAIWEVTRACGLVCQHCRADAQHEPHPEQLTTEQGKQLLSDLASYERPKPLVVLTGGDPFERQDLEELVDYGTSLGLNVSLSPSVTPRLTPERIHRLYELGGKAMSMSLDGATAETHDAFRGFSGTFDTTVKRAADILQAGFRLQINSTLTKSNIREAPALLKTVMGMGAKMWYVFFLVPTGRGAALNALNPQEREDVLHWLADVSDRIAIKTTEAPQYRRVVIQQRLRKEGQLDKYQGGELYRYLTQKTTELLGAHPVQPRRPRPPMAVNSGSGFVFIDHIGDVYPSGFLPIHCGNVKQASIKTIYSQSPTFQALRDPNHWHGKCSVCEFHDVCGGSRSTAYALTGDVRASDPTCVYMPQPWLDAGHSGVED
soluble on expression in E. coli: not soluble

QYVKPELPDVATLKDVELQTPMQVFSQDGKLIAQFGEKRRIPVTYDEIPQDLIHALIATEDSRFYEHPGIDPIGITRAAVVVALSGSAKQGASTITQQLARNFFLSNEKKLMRKIKEIFIAIHIEQLLSKQEIMELYVNKIFLGYRSYGFGAAAQVYFGKSLNELSLSEIATLAGMPKAPSTMNPIYSLERATKRRNVVLMRMLDEKYITQEQFDEARNEPIIARYHSAEIEVSAPYVAELARAWAVKEYGEEKAYTSGLNIYMTVDSKLQDAANKAAVNNLMAYDERHGYRGAEKVLWKEGEAAWDAEQIEKHLKGQPTYGDLYPAVVTKVEGKTAQVVVKNNDAQTIPWTGINWARKFLTDNRQGSTPKSAQEVLAAGEQIWVRELTTTDEDGNTQSSWKLSQVPSANT
soluble on expression in E. coli: not soluble

MKKVVTVCPYCASGCKINLVVDNGKIVRAEAAQGKTNQGTLCLKGYYGWDFINDTQILTPRLKTPMIRRQRGGKLEPVSWDEALNYVAERLSAIKEKYGPDAIQTTGSSRGTGNETNYVMQKFARAVIGTNNVDCCARVCHGPSVAGLHQSVGNGAMSNAINEIDNTDLVFVFGYNPADSHPIVANHVINAKRNGAKIIVCDPRKIETARIADMHIALKNGSNIALLNAMGHVIIEENLYDKAFVASRTEGFEEYRKIVEGYTPESVEDITGVSASEIRQAARMYAQAKSAAILWGMGVTQFYQGVETVRSLTSLAMLTGNLGKPHAGVNPVRGQNNVQGACDMGALPDTYPGYQYVKDPANREKFAKAWGVESLPAHTGYRISELPHRAAHGEVRAAYIMGEDPLQTDAELSAVRKAFEDLELVIVQDIFMTKTASAADVILPSTSWGEHEGVFTAADRGFQRFFKAVEPKWDLKTDWQIISEIATRMGYPMHYNNTQEIWDELRHLCPDFYGATYEKMGELGFIQWPCRDTSDADQGTSYLFKEKFDTPNGLAQFFTCDWVAPIDKLTDEYPMVLSTVREVGHYSCRSMTGNCAALAALADEPGYAQINTEDAKRLGIEDEALVWVHSRKGKIITRAQVSDRPNKGAIYMTYQWWIGACNELVTENLSPITKTPEYKYCAVRVEPIADQRAAEQYVIDEYNKLKTRLREAALA
soluble on expression in E. coli: soluble

VDREQLVQKARLAEQAERYDDMAAAMKNVTELNEPLSNEERNLLSVAYKNVVGARRSSWRVISSIEQKTSADGNEKKIEMVRAYREKIEKELEAVCQDVLSLLDNYLIKNCSETQYESKVFYLKMKGDYYRYLAEVATGEKRATVVESSEKAYSEAHEISKEHMQPTHPIRLGLALNYSVFYYEIQNAPEQACHLAKTAFDDAIAELDTLNEDSYKDSTLIMQLLRDNLTLWTSDQQDDDGGEGNN
soluble on expression in E. coli: soluble

SGPMDSRALRQGNRLLGNAEGCAALEITMSGPLLRFNTDAVIAVTGAHIPITLDGESCAMNTALLVRAGSTLALGTIAGAGVRSYLCVRGGLDVPDYLGSKSTFTLGQFGGHGGRALRAGDVLHIARLVDRTAGQKIADEQLDALQDVRQIRVIYGPHAAPEYFTESYIETFFATDWEVHFNSSRTGVRLIGPKPEWVRADGGEAGLHPSNIHDNPYAIGAVDFTGDMPVILGPDGPSLGGFVCPVTIIEADLWQLGQLKAGDKVRFYPVSVEACHAAMNSQGPLPQGPLNTSGSGL
soluble on expression in E. coli: not soluble

MKFKDLRDFVQQLEQRGELKRIQMPISPVLEMTEICDRTLRAKGPALLFENPVGFDIPVLGNLFGTPERVAMGMGAEAVTELREIGKLLAFLKEPEPPKGLKDAWSKLPIFRKVIAMAPKVVKDAPCQEIVIEGDDVDLGMLPVQTCWPGDVAPLITWGLTVTKGPNKERQNLGIYRQQVIGRNKIIMRWLSHRGGALDFRDWCVKHPGEPYPVAVALGADPATILGAVTPVPDSLSEYAFAGLLRGSRTELIKCRGSNLQVPASAEIVLEGVIHPGEMANEGPYGDHTGYYNEVDSFPVLTVERITHRIKPIYHSTYTGRPPDEPAILGVALNEVFVPILQKQFPEIVDFYLPPEGCSYRMAVVTIKKQYPGHAKRVMLGVWSFLRQFMYTKFVIVTDDDINARDWNDVIWAITTRMDPKRDTVMIDNTPIDYLDFASPVSGLGSKMGLDATNKWPGETTREWGRAIVKDEATTRRVDEIWTQLGIDLEHHHHHH
soluble on expression in E. coli: not soluble

GSHMSQGSGEGEGVQLTAAQELMIQQLVAAQLQCNKRSFSDQPKVTPWPLGADPQSRDARQQRFAHFTELAIISVQEIVDFAKQVPGFLQLGREDQIALLKASTIEIMLLETARRYNHETECITFLKDFTYSKDDFHRAGLQVEFINPIFEFSRAMRRLGLDDAEYALLIAINIFSADRPNVQEPGRVEALQQPYVEALLSYTRIKRPQDQLRFPRMLMKLVSLRTLSSVHSEQVFALRLQDKKLPPLLSEIWDVHE
soluble on expression in E. coli: soluble

MNVDVLLKNVWLYQTVTQTFVQRNVAIKNDKFYYIYEEENVNLQPQKTINAENQWMIPGLIDAHMHIESSMTTPTIFSKAVVRYGVTTVIADAHEMANVFGLEGLKAFMAAETELDIFHAIPSSVPSTTPELETTGGIIGLAEVAELLKEPKVICLGEAMNFKGISYEPDSLIRQIIDLCQKQRPTMPLEGHCPKIEDQELADFLYSGITSDHTHQFPKTLKEKIEAGVFIQFQNKSITPENIQVIVDNDFYNYASIITDDVMADDLLKGHLNENVKKAVHAGLPIEKAIYMATYTPAKRMGLHDRGEIAPGKKADFLLLNDLESFDINTVYKSGKVVFEKGEPFHYPEKIEEFPATYQQTIQCKKLTEEDLLLKVATTKETVRCNVIQKQEIGTFTERITKEIPVENGLLQWQKANCALLIVMERYGKNGNISFSLMDQPLSEKGAIATTWAHDHHNLMVMGNTIEDILLAQNELLAMQGGYLVASDQQVMATCPLPIGGILSQAPIEQLGASLQKVRQAMQALGYQNMNEIMSFSTLSLPVSPAIKVTDFGMMDTKSQRFYPLVFPEDGVLLHENTH
soluble on expression in E. coli: not soluble

MTIYTCTLNLAIDLFIETEELVPFVVNRTKEDDIQANGKGVNVSLILKMLGIDNTALGVKAGFTGNYVEDYLKEKEITTDFIEVAGTTRINVFTKVTQDQKEYKLVNKGPKLSEEHVQRFLKKISELRKGDYLCVSGSLPQGVSPSILIEISRICFEKQVFLILDSSYEEILDCLPYQPFLLKPNEEELQEWFHTEVQTKDDYIFYGQELLKRGAKNILLSLGSEGALFMNNEKVLSGNSPTGMVVNTACSGDAMLGTFLAGWHQGLSLEKNLKRSIAAGSSTAFRKGLTDFSDVQELEQQIKIQEEE
soluble on expression in E. coli: not soluble

MVQEIIVDSGDIEFLTTPKEYKQQLLSLIECARQRIFITALYLQDDEAGREILHALYQAKANFPTIEINIFVDFNRGQRGLIGEKASLGNRALYLKLAHEYPHTVNIYGVAVKRKEVFGVLHLKGMVFDEKLFYTGASINDIYLHQGERLEHHHHHH
soluble on expression in E. coli: not soluble

MDVTFLTKNVQINGTQFKILLQNGQGECALIALANVLLISPAHARYAQEISRLVRGKETVTLNELVQTLADMGVQNPNGTDVDKQQLLQILPQLYSGLNINPEFNGSFEDGVEMSIFRLYNVGIVHGWIIDGDNDPNSYEHVSKYSYMGAQKVLVQSYEIQKNNAQFENSEQIQSDAPYLKSFLARSATQLTEYGLTHLREILVERSYAVLFRNDHFCTLYKNNGELFTLVTDPTYRNRKDINWQSLKSVNGSQDSYYTGNFIPTSLERTETTATGQNESYISNPFSDQNTGHVTSNQVNSGASGVQQIEDDEELARRLQEQEDMRAANNMQNGYANNGRNHQRERFERPEKNSKKNKFLPFNGSNKEKKRDKLKKNCVIM
soluble on expression in E. coli: soluble
